Experimental data taken from the supplement of paper PMC12042874.
± gives the uncertainty stated by the source.

Test: amyloid nucleation score (Sup35N fusion, yeast selection) (log enrichment); library NNK1; higher = more nucleation; inactive = no reads after selection
Outline: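 Using DiMSum, nucleation scores were taken as the log enrichment of output over input reads, centred on the mode score of non-aggregating sequences. The input and output reads came from Illumina sequencing of plasmid inserts, with sequences under 100 input reads excluded. The yeast were psi-negative, expressed Sup35N fused to peptides of 20 random codons, were induced with 100 μM copper sulfate for 24 hours, and were grown 7 days at 30°C on medium lacking adenine and uracil.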

Row | Substance | amyloid nucleation score
1 | LMPARLNYERTALSMPKWSE | -0.38 ± 0.63
2 | LMQLHCLARSLYPFPWSGPT | 1.96 ± 0.42
3 | LMRRGGCVYVGFFWELVCFQ | -0.524 ± 0.83
4 | LMSLVNPTRVSLFFDH | -0.11 ± 0.68
5 | LMVNLYPY | 0.16 ± 0.4
6 | LMVYK | 0.575 ± 0.55
7 | LMYKICTLVRRLHLSRYKNM | -1.27 ± 1.7
8 | LNATGSLPYDIMECTKELWP | -0.343 ± 0.7
9 | LNEHLFR | 0.615 ± 0.87
10 | LNFVNAPRSHMSGYSIGGLC | -1.5 ± 1.7
11 | LNGIFNNPY | -0.512 ± 0.78
12 | LNGRYLDVLHQVIHQNVREP | 3.01 ± 0.22
13 | LNGTLSCNAISFFIMFA | 0.846 ± 0.44
14 | LNIEVFNFICNRRAIWMRFA | 0.684 ± 0.53
15 | LNINSKYLNLICYHIRHLAV | -0.593 ± 0.78
16 | LNMHSR | inactive
17 | LNNAGTFFLPEVFRLRWTNV | 0.018 ± 0.93
18 | LNNLCNGMGGL | -0.78 ± 0.53
19 | LNNLVFVLLV | 3.37 ± 0.09
20 | LNSLPLSTVLYSFRVMYWMY | inactive
21 | LNSLVKALQSVNNYVDLTYS | 0.358 ± 1.1
22 | LNVYWRPCNN | 0.717 ± 0.9
23 | LPCSRRTTPSDVCP | -0.271 ± 0.36
24 | LPDNSIYRYLSY | 0.149 ± 0.42
25 | LPGDDTSCEDLSGGVPLWNG | inactive

Row | Substance | amyloid nucleation score
26 | LPGFYDRKICKSLSMIYRLS | -0.405 ± 1.7
27 | LPGTSRRASRCLFACYVDMS | 0.676 ± 0.39
28 | LPIVGFSCFEFIMIERMRLV | inactive
29 | LPKKDNHSSTNA | -1.77 ± 2.4
30 | LPVLSGWTNTAA | -0.73 ± 0.59
31 | LQKVFLAVDSYW | -0.347 ± 0.92
32 | LQLIGYRDNWSGVMFYLERG | 0.838 ± 0.55
33 | LQLTYPPLVVPSSRWCLLLS | -0.099 ± 0.97
34 | LQLYQVFSVHYEC | 3.08 ± 0.11
35 | LQNVGRENEESTCERRSKVY | inactive
36 | LQTGRYDWKVDPINSSMESV | 0.26 ± 0.7
37 | LQYGNWPGGVFVWWFIKMHH | -0.02 ± 0.71
38 | LRCVLQSRRWEIGMLRLTER | -0.267 ± 0.35
39 | LRGIDRTALGSGSERYLCLL | -0.253 ± 0.59
40 | LRHRKSRNRVSCHCLGHGCW | 1.54 ± 0.84
41 | LRIDFGDATSVGRRRFMCTV | -0.199 ± 1.5
42 | LRKGTVRLSSFEKWYMVRTG | -0.701 ± 0.7
43 | LRKMLMDE | inactive
44 | LRLENAQLSFTFEYWILYG | -0.475 ± 1.7
45 | LRLIV | 0.113 ± 0.89
46 | LRLNDSSLRIPEAA | -0.107 ± 0.44
47 | LRMNLSRKPANFCFKCIIGK | -0.348 ± 0.5
48 | LRNSHNVGEQFCISVRDSLG | 0.007 ± 0.69
49 | LRNVYLSGKFVYRGELNCET | 0.95 ± 0.31
50 | LRRGMQHAFADSENFVGSHV | -0.168 ± 1.3

Row | Substance | amyloid nucleation score
51 | LRRPVRSTLNGMRMSQHTRR | -0.164 ± 0.66
52 | LRSFW | inactive
53 | LRSKCECNTRGSCAWWCSDA | 1.1 ± 0.9
54 | LRSMCSCHVRPIYPFCGHY | 0.242 ± 0.81
55 | LRTKSLWSF | -0.515 ± 0.59
56 | LRVNGEKIKASLPFEGD | 0.197 ± 0.51
57 | LRVVYPGPSYAGASDLSSMR | -0.926 ± 0.63
58 | LSCDVQWLCLESNCE | 3.96 ± 0.07
59 | LSDWYNLRRWRTVTWAQQLH | -0.4 ± 1.3
60 | LSEDVHRTVVRYWMKSRR | 1.74 ± 0.31
61 | LSEWNPSLVCMERTLHCS | 0.493 ± 0.25
62 | LSFAKGSVFITGDCISGTVD | -1.49 ± 1.7
63 | LSFETRRWMYYIS | 0.446 ± 0.24
64 | LSFIACPYIVRVYAFNPRTG | 6.16 ± 0.071
65 | LSFMMRGSIHWPLTTLRACS | 1.05 ± 0.6
66 | LSGDIFRNHMNRFYL | -0.071 ± 0.27
67 | LSGFKMFIGNYITVV | -0.779 ± 0.78
68 | LSHGSIQMVYPELR | -0.829 ± 1.6
69 | LSKKFWRFVWARLSEELIER | 0.811 ± 0.51
70 | LSLDRNVATHKGSYPEWDNF | 0.752 ± 0.23
71 | LSLILFVCRIYTYSCSHRAL | 0 ± 0.36
72 | LSMKNQDTCTFTCVLSHLSL | 1.9 ± 0.23
73 | LSMPGTTCIFYYRLFLVLGE | -0.043 ± 0.31
74 | LSPWSKTSIYCNLLPCIVSR | 0.571 ± 0.3
75 | LSRHGKVKCKLLATGGLT | 0.184 ± 0.45

Row | Substance | amyloid nucleation score
76 | LSSIATRKHELLNFPV | 0.294 ± 0.63
77 | LSSTSV | 0.425 ± 0.44
78 | LSTLQQLGKLLNTVWDDLAQ | 0.048 ± 0.9
79 | LSVIIII | 4.96 ± 0.051
80 | LSWVQSLKACNI | 1.45 ± 0.4
81 | LSWYPCWVARSTMALDGYGV | -0.776 ± 0.55
82 | LTKASHVRLNNVGV | 0.034 ± 0.6
83 | LTLVNASSSRYEMSLFFQSI | 2.53 ± 0.12
84 | LTNATFQLWLLCCDGPLRDM | 5.87 ± 0.062
85 | LTQLYLVTSSTWVNYSYLKW | 0.742 ± 0.58
86 | LTSCLLPFDPLSNDNYKGVW | 1.78 ± 0.65
87 | LTVIVFIMEATIDYYGGRCG | 0.959 ± 0.92
88 | LTVMMLGFGHVQCMS | -0.003 ± 0.26
89 | LTYLNMALVCRFFYVFRHDW | 0.799 ± 0.57
90 | LVCFHQRVKIVRYCRTGTLT | -0.095 ± 0.61
91 | LVCSIMWNGVRHAPVRCKPT | -0.382 ± 0.47
92 | LVCVSQVYGALDTCGPVSMM | 0.379 ± 0.54
93 | LVELNIGTTLCWQMRLRNVG | -0.037 ± 1.7
94 | LVFANSHGFCGKSSLLRVGD | inactive
95 | LVFFCNM | 7.824 ± 0.06
96 | LVFSRFLGSVLVNEPSEATR | 0.203 ± 1.5
97 | LVFTMWLPKRDACPDLTTMM | 0.34 ± 0.47
98 | LVGSKSGVTRQRMALRWGGF | -0.285 ± 1.4
99 | LVKWGCQLSVEFVRFNTGFQ | 1.74 ± 0.094
100 | LVLQRDIGSACVDCHGVGKA | 1.17 ± 0.52

Row | Substance | amyloid nucleation score
101 | LVMFMNMSLRYNRGLSLVKR | -0.252 ± 0.26
102 | LVNCVVGFLTLVNFWSIHQL | 0.206 ± 0.79
103 | LVPSTFHTF | 0.149 ± 0.77
104 | LVSMSYSVREDDFISLLWGV | inactive
105 | LVTGSCNQWHGKW | -0.062 ± 0.39
106 | LVTRLALSFAVNFLLGDSCV | 0.595 ± 0.48
107 | LVWLY | 0.493 ± 0.68
108 | LVWSGLHVGGHSWVGFTGVV | 0.241 ± 0.61
109 | LWEIRILLL | -0.994 ± 0.68
110 | LWFQLLMLEFSRNKPIQTVG | -0.138 ± 0.64
111 | LWKLLAAGVGNMCDD | -0.503 ± 0.38
112 | LWNCKIVVWSFIGSVCTTGK | 2.29 ± 0.19
113 | LWNGIFELAYLTGVYEFRYG | 2.07 ± 0.26
114 | LWPEPVSRSIHSRSH | 0.976 ± 0.55
115 | LWSVVYIVIYHLMSNADWST | -0.252 ± 0.41
116 | LWVFGCCIVRMIR | 0.047 ± 0.74
117 | LWYKIGFLIWSRTGTLYQGI | 0.273 ± 0.3
118 | LWYVAPHVTRSNFEVQGGCG | -0.249 ± 0.34
119 | LYACNFFVFISRPAGMDSAS | 5.29 ± 0.079
120 | LYAKLQLLRNKYRVYLFVTS | -0.741 ± 0.55
121 | LYEVNWVSYRMFAVGVRYVL | -0.397 ± 0.36
122 | LYFMSISTMAIRSCGVGLHQ | 0.235 ± 0.37
123 | LYFRIGYSMLIATDVGFGDL | -2.74 ± 1.8
124 | LYGGNSRFRLSSYRYGMFWN | inactive
125 | LYGYSI | 0.778 ± 0.41

Row | Substance | amyloid nucleation score
126 | LYIYTKFRFVMYVSWCVSDS | 0.012 ± 0.62
127 | LYMPSGNIFG | 0.973 ± 0.8
128 | LYNPFHIRESMRSRPLVRWV | -0.1 ± 0.32
129 | LYNRIANFGPGYINLWVI | 6.375 ± 0.061
130 | LYNVKTGFVRQTDVG | 0.106 ± 0.91
131 | LYPKSFYTKYYEWYTSGLIF | 0.236 ± 0.57
132 | LYRVSLLGRGGNSMMCDMWL | inactive
133 | LYSDPKVCHN | 4.74 ± 0.065
134 | LYSLGTSHEIPCLM | 0.442 ± 0.42
135 | LYTHNSELNIKGSKVVHIEW | 0.489 ± 0.4
136 | LYTITLLIALALTTEQAPPR | 1.67 ± 0.28
137 | LYTKFFEAMWQVWRFERTQR | 2.53 ± 0.21
138 | LYYDSLYCHSFLWYGSLVLS | -0.06 ± 0.38
139 | MACVVRVLGVMVHLKMLVGL | -1.11 ± 1
140 | MAFMLWLDYW | 0.395 ± 0.32
141 | MAFYSTSLSFSEGGIRCSIY | 5.14 ± 0.08
142 | MAGSSMTISVLYSWIP | inactive
143 | MAVFSIDRVVPVVTGGCIAE | 0.035 ± 0.46
144 | MAVYFLGFIA | 0.604 ± 0.59
145 | MCFLLSYLRWLDYYSYVVVC | 0.962 ± 0.42
146 | MCGRSGTFSAILRDREGLNI | 0.219 ± 0.65
147 | MCILTRRFGLMGWNTHYKS | -0.525 ± 0.94
148 | MCRVHFRNVTFCGALARSVL | -0.751 ± 0.43
149 | MCVMVGLLYGVLLSSFTNNA | 0.684 ± 0.23
150 | MDGALSVEFSWGLLSKTRLC | -0.122 ± 0.74

Row | Substance | amyloid nucleation score
151 | MDGFERWGSYVTWSQLVMIR | -0.837 ± 0.98
152 | MDKEESRCVELSLMSVSVMG | 1.35 ± 0.79
153 | MDKSTMVGIKCTMRVSRQMG | -0.158 ± 0.56
154 | MDLHTACVYSKVGMTLDQPS | 0.343 ± 0.39
155 | MDLKTY | -0.696 ± 0.46
156 | MDRALQRSWRLGLRPGEGGS | -0.455 ± 0.62
157 | MDVPFLRKN | 0.154 ± 0.66
158 | MDWLEYHMSFCSHV | 0.07 ± 0.26
159 | MENAGTSVIPRRYIWTPKPV | 0.923 ± 0.76
160 | MEPYYVRNSCFCRIRDRNF | -0.21 ± 0.33
161 | MERYCN | -0.148 ± 0.23
162 | MFARLNF | 3.98 ± 0.062
163 | MFFVFSYSRS | 1.52 ± 0.28
164 | MFGGGWDAKWPPIPCLKKVD | 0.308 ± 0.43
165 | MFRNI | 0.227 ± 0.26
166 | MFSTKSH | 0.543 ± 0.49
167 | MFSTLH | 0.178 ± 0.36
168 | MFWQHQLFVESRQNSSFTSF | -0.23 ± 0.63
169 | MGCKAKRAFVEFLSRMEVRP | -0.035 ± 0.22
170 | MGEYSRLSARSGWLDTPVDG | -0.496 ± 0.67
171 | MGFQFNTFCF | 8.144 ± 0.062
